Data on two molecules can be found in patent publication US20250145684A1.

Like-named read-outs stand apart in the source and are kept apart here.

The experiment deals with HLA-B*08:01 (human). In words: UV peptide exchange ELISA. (ELISA stands for enzyme-linked immunosorbent assay.)

As to EPVTKAEM [EPVTKAEM (SEQ ID NO: 97)], the peptide exchange yield (remark: other sources report otherwise) lay in the range of 50 to 75%.
The molecule FAFEKLIQF (modifications not checked) [… (SEQ ID NO: 101)] had a peptide exchange yield of 50 to 75%.
